# How the values were obtained:
# Assay in all cases: cell-based or functional assay
# [1] = molecular target: RBDNR receptor (truncated TGFβ dominant negative receptor) (human) (UniProt P37173)
# [2] = molecular target: NKA receptor (truncated TGFβ dominant negative receptor fused to DAP12) (human)
# [3] = molecular target: wild-type TGFβRII on untransduced (UT) cord blood-derived NK cells (human) (UniProt P37173)
# [4] = molecular target: NKCT receptor (truncated TGFβ dominant negative receptor fused to a SynNotch receptor coupled to RELA/p65) (human) (UniProt P37173)
# NKA receptor (truncated TGFβ dominant negative receptor fused to DAP12) (human), sequence (chain, as listed by the source limits assumed, form in doubt): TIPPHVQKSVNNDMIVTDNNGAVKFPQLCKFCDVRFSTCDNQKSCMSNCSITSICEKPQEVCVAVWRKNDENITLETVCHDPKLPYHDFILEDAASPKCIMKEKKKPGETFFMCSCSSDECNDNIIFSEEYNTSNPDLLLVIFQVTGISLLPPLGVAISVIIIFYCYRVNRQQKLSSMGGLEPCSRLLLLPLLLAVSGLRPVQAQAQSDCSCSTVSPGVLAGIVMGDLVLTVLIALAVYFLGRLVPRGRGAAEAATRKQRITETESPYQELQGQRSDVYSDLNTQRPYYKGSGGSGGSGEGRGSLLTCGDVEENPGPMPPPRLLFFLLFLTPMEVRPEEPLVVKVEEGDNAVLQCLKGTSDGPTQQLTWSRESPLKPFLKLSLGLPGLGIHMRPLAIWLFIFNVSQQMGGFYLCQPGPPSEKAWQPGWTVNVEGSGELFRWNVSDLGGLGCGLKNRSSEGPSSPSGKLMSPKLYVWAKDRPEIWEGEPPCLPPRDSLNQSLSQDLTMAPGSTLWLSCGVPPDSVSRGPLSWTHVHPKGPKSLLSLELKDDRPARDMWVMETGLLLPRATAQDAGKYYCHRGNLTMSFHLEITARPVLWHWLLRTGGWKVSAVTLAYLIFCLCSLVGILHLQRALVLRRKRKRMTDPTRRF
substance,measurement,setting,value
TGFβ (ligand),protection from TGFβ-impaired cytolytic activity in vitro (TGFβ concentration at which protection is lost),[1],> 50 ng/mL
same,protection from TGFβ-impaired cytolytic activity in vitro (TGFβ concentration at which protection is lost),[2],> 50 ng/mL
same,"phosphorylated Smad2/3 (Ser465/467) by flow cytometry in untransduced NK cells, 1 hour after 10 ng/mL TGFβ",[3],73.9%
same,protection from TGFβ-impaired cytolytic activity in vitro (TGFβ concentration at which protection is lost),[4],> 50 ng/mL

# — patent US20230210897A1
